The experiment can be described thus: Reducing and oxidation activity of recombinant myo-inositol 2-dehydrogenase (BG10669 gene product). The experiment is classed as biochemical. The procedure: The myo-inositol 2-dehydrogenase reducing activity was measured as described below. 5 μl of a reaction solution (200 mM Tris buffer (pH 8.0), 2% of NADH, 1% of scyllo-inosose) was mixed with 5 μl of an enzyme solution, and the mixture was allowed to react at 36° C. for 30 min. Immediately after the reaction, 500 μl of water was added, and the absorbance at 340 nm was measured. From the blank value of a test tube prepared by using water instead of the enzyme solution, the decrease in the absorbance at 340 nm was measured. […] The reaction rate was calculated from the absorbance increments at the respective times.

B1: myo-inositol 2-dehydrogenase: recombinant myo-inositol 2-dehydrogenase, product of BG10669 gene derived from Bacillus subtilis 168 ATCC23857 (protein, UniProt P26935 1-344, looked up)
Inositol …: MSLRIGVIGTGAIGKEHINRITNKLSGAEIVAVTDVNQEAAQKVVEQYQLNATVYPNDDSLLADENVDAVLVTSWGPAHESSVLKAIKAQKYVFCEKPLATTAEGCMRIVEEEIKVGKRLVQVGFMRRYDSGYVQLKEALDNHVIGEPLMIHCAHRNPTVGDNYTTDMAVVDTLVHEIDVLHWLVNDDYESVQVIYPKKSKNALPHLKDPQIVVIETKGGIVINAEIYVNCKYGYDIQCEIVGEDGIIKLPEPSSISLRKEGRFSTDILMDWQRRFVAAYDVEIQDFIDSIQKKGEVSGPTAWDGYIAAVTTDACVKAQESGQKEKVELKEKPEFYQSFTTVQN
Consider B1, for which the “oxidation activity on myo-inositol” value (1% myo-inositol, NAD^+, pH 8.0, 25° C.) was “have an activity to oxidize myo-inositol”. For the same molecule, the “oxidation activity on scyllo-inositol” value (1% scyllo-inositol, NAD^+, pH 8.0, 25° C.) is reported as “no activity to oxidize scyllo-inositol”. For the same molecule, the “reducing activity on scyllo-inosose” value (NADH, pH 8.0, 36° C., 30 min) is listed as “have an activity to reduce scyllo-inosose”.

For the origin of these results see US8409833B2 (Hokko Chemical Industry Co., Ltd., priority 2003, dated 2013).
